Common to all, as to assay: SPR; Biacore S200; Bcl-2 family proteins immobilised on CM5 (amine coupling or His-Capture Kit); peptides and flag-tagged proteins as analytes, single-cycle kinetics, HBS-EP, 25 °C; 1:1 Langmuir model; absence of binding probed at 100 nM and 3 µM
In one assay the target is Bcl-xL (human) (UniProt Q07817).
In the next assay the target is Bcl-2 (human) (UniProt P10415).
Assay [1] concerns the target His-tagged human Mcl-1 (human) (UniProt Q07820).

Chain of Bim BH3 peptide (25-mer, residues 141-165) (peptide): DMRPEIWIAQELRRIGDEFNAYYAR
Chain of Bcl-xL (human) (Q07817 whole entry): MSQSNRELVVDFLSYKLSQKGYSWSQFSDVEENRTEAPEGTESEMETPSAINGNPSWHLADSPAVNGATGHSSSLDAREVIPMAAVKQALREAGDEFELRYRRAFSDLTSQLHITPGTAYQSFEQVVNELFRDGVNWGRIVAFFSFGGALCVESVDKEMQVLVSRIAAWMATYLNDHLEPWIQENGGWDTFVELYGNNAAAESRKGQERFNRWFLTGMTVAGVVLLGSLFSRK
Chain of His-tagged human Mcl-1 (human) (Q07820 whole entry): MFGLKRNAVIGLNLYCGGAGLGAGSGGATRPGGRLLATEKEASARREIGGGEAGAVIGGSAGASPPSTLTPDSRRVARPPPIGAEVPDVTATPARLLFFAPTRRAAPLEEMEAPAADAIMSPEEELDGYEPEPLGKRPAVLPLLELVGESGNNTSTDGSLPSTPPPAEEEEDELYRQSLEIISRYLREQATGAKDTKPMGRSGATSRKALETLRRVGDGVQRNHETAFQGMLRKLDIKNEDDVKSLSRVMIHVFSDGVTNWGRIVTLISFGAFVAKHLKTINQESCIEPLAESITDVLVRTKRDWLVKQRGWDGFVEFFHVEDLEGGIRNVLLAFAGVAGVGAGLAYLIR

Consider Bim (A149I) peptide, for which the dissociation constant (Kd) is 12.2 nM with Bcl-xL (human), 115 nM in the assay with Bcl-2 (human) and 0.82 nM in assay [1].

Take “Bim BH3 peptide (25-mer, residues 141-165)”: the Kd with Bcl-xL (human) came out at 3.3 nM; with Bcl-2 (human), 14.2 nM; in assay [1] it was 0.37 nM.

The Kd is the free concentration of one partner at which half of the binding sites on the other are occupied at equilibrium, for simple one-to-one binding. A low value points to higher affinity.

Values taken from publication PMC8316464.
